These results are taken from patent US10704064B2, “Recombinant yeast producing 3-hydroxypropionic acid and method for producing 3-hydroxypropionic acid using the same” (SK Innovation Co., Ltd., priority 2014, dated 2020).

A short description of data set [1]: SDS-PAGE expression levels of MCR constructs in E. coli lysate. From the text: (§1) pBAT T7 promoter based expression constructs were made for four different archaeal MCRs, Metallosphaera sedula (MCRms), Sulfolobus tokodai (MCRst), Candidatus caldiarchaeum (MCRcc), and Sulfolobales archaeon (MCRsa1).
The test system of data set [2] is MCR. Nature of the data set: archaeal MCR activity assay in E. coli lysates (microtitre plate). Type of data set: biochemical. The note with it: E. coli cell lysate, NADPH or NADH. On the procedure:
as §1
Their activity was analyzed using the following assay conditions: 0.4 mM NAD(P)H; 0.15 mM Malonyl-CoA; Tris-HCl pH 7; 2 mM MgCl2. Assays on 20 times diluted lysates were performed in microtitre plate (MTP) format at RT. The oxidation of NADPHT or NADHT at A^365 in time was followed. […] However, the MCR activities were smaller than that measured for the tagged MCRca.

Data set [3] relates to MCR. Nature of the data set: MCR enzyme assay from yeast cell lysates. Type of data set: biochemical. The settings on record: NADPH as a cofactor. The method, then: The MCR enzyme activity was measured according to the method described by Chen et al. (2014, Metab. Eng. 22:104-109) with slight modifications. The method is based on monitoring the oxidation of NAD(P)H at 340 nm.
Cells were collected and washed with cold wash buffer containing 20 mM Tris-HCl (pH 7.5), 20 mM NaN3 and then resuspended in 1 mL of breaking buffer containing 50 mM HEPES (pH 7.5), 150 mM KCl, 1 mM DTT, 1 mM EDTA, 0.5% Triton X-100 and 1×EDTA free protease inhibitor cocktail (Roche). The cells were lysed with glass beads in a Precellys 24 homogenizer at 5500 rpm for 3×40 seconds and kept on ice between rounds. Lysates were centrifuged at 16 000 g for 20 min at 4° C. and supernatants were collected. The total protein concentration was determined using the Bradford method.
The MCR assay mixture contained 50 mM Tris-HCl buffer (pH 8.0), 5 mM MgCl2 and 0.3 mM NADPH or NADH. After adding 20 μL of cell lysate into a total reaction volume of 200 μL, the reaction was pre-incubated for five minutes at 30° C. after which the reaction was started by addition of 0.15 mM malonyl-CoA. The assay was monitored at 340 nm with a Thermo Konelab 20XT analyser.
The eight full-length Chloroflexus MCR homologues were truncated into their two functional domains and the MCR-specific domains were assayed for enzyme activity in yeast along with the six archaeal MCRs. […]

For data set [4], the system named is AADH. Put plainly: AADH in vitro enzyme activity assay from yeast cell lysates. Type of data set: biochemical. The settings on record: in vitro, expressed in yeast. On the procedure:
AADH activity was measured as described by Kozak et al. (2014, Metab. Eng. 21:46-59) by monitoring the reduction of NAD^+ at 340 nm at 30° C. The yeast cells for the cell lysates were collected, washed with water, and then resuspended into lysis buffer containing 100 mM Tris-HCl buffer (pH 7.5) and 1×EDTA free protease inhibitor cocktail (Roche). The cells were lysed with glass beads in a Precellys 24 homogenizer at 5500 rpm for 3×40 seconds and kept on ice between rounds. Lysates were centrifuged at 16 000 g for 20 min at 4° C. and supernatants were collected. The total protein concentration was determined using the Bradford method.
The enzyme assay reaction mixture contained 0.1 mM Coenzyme A, 50 mM CHES buffer (pH 9.5), 0.8 mM NAD^+, 0.2 mM DTT and 10 μL of cell extract in a total reaction volume of 200 μL. The reaction was started by adding 10 mM of freshly prepared acetaldehyde solution and reduction of NAD^+ was followed with a Thermo Konelab 20XT analyser.
Five AADH genes were originally chosen (i.e. ADHEpm, ADHEec, EUTec, EUTdz and LIN1129li) and transformed into the CEN.PK lab strain. These AADHs were expressed from a multicopy plasmid where they were under control of the TEF1 promoter.
Twenty additional novel AADH genes were chosen from the genome mining analyses to be evaluated for expression and enzyme activity in yeast.

Data set [5] has as its system S. cerevisiae VSK-128 ACS2 deletion strain. Put plainly: AADH in vivo growth assay, ACS2 deletion strain on glucose-based agar plates. Type of data set: cell-based. From the text:
All copies of the ACS2 gene were deleted from the industrial S. cerevisiae VSK-128 strain in order to generate a strain with a defective PDH-bypass that was incapable of growth on glucose-based medium. Expression vectors carrying the 25 different AADH variants were then transformed into this ACS2 deletion strain to evaluate their ability to recover the growth of this strain on glucose.
There was a good correlation between the in vitro AADH enzyme activity assays and the in vivo growth recovery analyses.

B1: MCRcc: archaeal malonyl-CoA reductase of Candidatus Caldiarchaeum subterraneum, GenBank BAJ50751.1 (protein)
chain: MKTYSVAILGATGMVGQHYIRMLYRHPWFRITALTGKESVGRKYVEAVRGEAPEPPKEIAEMEVLPTDPKKVDADFVFSCLPTEAAREAEPKFAEAGFPVFSDAAAYRMEEDVPLIVPEINHDHLNMVHIQRKKRGWEGYIVTTPNCTTVGLVLPLQPLKQHLGVKKVIVTTMQAVSGAGYPGVASLSILGNVIPYISGEERKVETETAKILGRYGDGRFTHDSVEVHATCTRVPTLDGHMESIYLETAKPADEETVAELLAEYVSLPQELNLPTAPARPIVVRRELDRPQTRIDVDAGTVPGMSVSVGRIRVNGEKVRFISLSHNLIRGAAGGTILTAELARHMGLLGE
modifications: Candidatus Caldiarchaeum
On to B1, for which, in data set [1], the expression level result is given as “could not be expressed in a soluble form”. The MCR activity result in data set [2] was “No activity on NADPH or NADH could be measured”.

B2: MCRsa1: archaeal malonyl-CoA reductase of Sulfolobales archaeon Acd1, WP_020198954.1 (protein)
chain: MRRTLKAAILGATGLVGIEYVRMLSQHPYIKPAYLAGKGSVGKAYSEVVRWQTVGQVPKEVADMPVLPTDVNEIKKAGVDIVFSPLPQGAAGPVEEEFAKAGFPVISNSPDHRFDPDVPLMIPEVNGHTASLIDEQKKRRDWSGFIVTTPLCTAQGIAIPLAPIYRDFRVDSVFITTMQSLSGEGYPGVASLDVVDNIKVLGDAYDAKTVKEVTRILSEVKRNVPGTMDELTLSATTHRIATIHGHYEVMYVTFKEDVKVEKVKETLANFKGEPQDMKLPTAPSRPILITELDNRPQPYFDRWAGDVPGMSVVVGRLKQVNNRTVRLVSLIHNTVRGAAGGGILVAEYLIEKGYIPK
modifications: Sulfolobales archaeon
For B2, the expression level result in data set [1] is on record as “highest expression levels”. Moreover, in data set [3], the “MCR enzyme activity compared to the wild-type strain” value was “higher than the wild-type strain”. Further, in data set [2], the MCR activity entry is “showed the highest MCR activity”.

B3: AADHvs: eutE type AADH of Vibrio sp. EJY3, GenBank AEX22176.1 (protein)
chain: MNEQEIAHAVENVLSKYTNVTAQNAEPVSYSSNASLENIVSQALAGNMVKQPETQTAPDLNSNIENIVSQILAENQAKPQSVQCQSANHGTTEYLGCFASMEEAISAASHAQVQYRHCTMGDRASFVKGIREVFTQDDVLEKISRMAVEETGMGNYADKLTKNRIAATKTPGIEDLTTSALSGDSGLTLTEFSAYGVIGSITPTTNPTETIINNSIGMLAAGNTVVYSPHPRSRNVSLVAVDLINRKLAELGAPANLVVTVLEPSIDNTNAMMNDPRVNMLVATGGPSIVKTVMSTGKKAIGAGAGNPPAVVDETANIEKAAKDIINGCAFDNNLPCIAEKEVIVVNEVADYLIHCMKKSGAYLLCDKQKIQQLQSLVLNEKGTGPNTSFVGKGARYILDKLNIQVSDDIKVILIETERNHPFVVHELMMPILPVVRVENVDEAIDLAIKVEHGNRHTAIMHSTNVEKLSKMARLIQTTIFVKNGPSYSGIGVGGEGHTTFTIAGPTGEGITSARSFARYRRCVMVEALNIR
modifications: AADHvs
As for B3, the AADH activity entry in data set [4] is recorded as “shown to have AADH activity”. Further, the “recovery of the growth deficiency of the ACS2-deletion strain” value in data set [5] is recorded as “capable of recovering the growth deficiency”.
